Source: PMC8863788, “A multiparametric fluorescence assay for screening aptamer–protein interactions based on microbeads”

Tests used:
Test in all cases: fluorescent microbead binding (VideoScan)
PfLDH = PfLDH (UniProt Q76NM3 1-316); conditions: protein: recombinant; chain copies: 4
Interferon gamma (IFNγ) = Interferon gamma (IFNγ) (UniProt P01579 24-161); conditions: protein: commercial; chain copies: 2
Thrombin = Thrombin (UniProt P00734;P00734 328-363;364-622)

Interferon gamma (IFNγ), sequence (P01579 24-161): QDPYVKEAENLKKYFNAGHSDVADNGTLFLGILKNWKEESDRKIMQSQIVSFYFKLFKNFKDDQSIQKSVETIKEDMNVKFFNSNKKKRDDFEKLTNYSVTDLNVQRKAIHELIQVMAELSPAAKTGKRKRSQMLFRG

Binder: CTGGGCGGTAGAACCATAGTGACCCAGCCGTCTAC (structured_DNA) [PfLDH-apta]
- binding signal (PfLDH): ~2 fold signal vs no divalent cations
- binding signal (Interferon gamma (IFNγ)): ~6 fold signal increase
- binding signal (Thrombin): ~8 fold signal increase
